Results on one protein are retold here after publication PMC2646761.

Substrate in the series: CC#CC(=O)C(=O)O
Nature of the series: purified protein. The class given is biochemical, Corynebacterium glutamicum. The following applies: hydration of 2-oxo-3-pentynoate; typical value of the enzyme preparations used.

B1: Cg10062 (Corynebacterium glutamicum ATCC 13032) (protein)
chain: PTYTCWSQRIRISREAKQRIAEAITDAHHELAHAPKYLVQVIFNEVEPDSYFIAAQSASENHIWVQATIRSGRTEKQKEELLLRLTQEIALILGIPNEEVWVYITEIPGSNMTEYGRLLMEPGEEEKWFNSLPEGLRERLTELEGSSE
With B1, the Km is recorded as 4.2 ± 0.3 mM and the kcat is 0.16 ± 0.01 s⁻¹.

By Km is commonly meant the concentration of substrate that gives half-maximal velocity. As a reminder, the kcat is the number of substrate molecules converted per active site and unit of time at saturation.
